From patent US20230406950A1 (LYVGEN BIOPHARMA, published 2023)

B1: Ly460 (bispecific antibody, human IgG1, kappa)
heavy: QVTLKESGPALVKPTQTLTLTCTFSGFSLSTSGTCVSWIRQPPGKALEWLATICWEDSKGYNPSLKSRLTISKDTSKNQAVLTMTNMDPVDTATYYCARREDSGYFWFPYWGQGTLVTVSSASTKGPSVFPLAPSSKSTSGGTAALGCLVKDYFPEPVTVSWNSGALTSGVHTFPAVLQSSGLYSLSSVVTVPSSSLGTQTYICNVNHKPSNTKVDKKVEPKSCDKTHTCPPCPAPELLGPSVFLFPPKPKDTLMISRTPEVTCVVVDVSHEDPEVKFNWYVDGVEVHNAKTKPREEQYNSTYRVVSVLTVLHQDWLNGKEYKCKVSNKALPAPIEKTISKAKGQPREPQVYTLPPSREEMTKNQVSLTCLVKGFYPSDIAVEWESNGQPENNYKTTPPVLDSDGSFFLYSKLTVDKSRWQQGNVFSCSVMHEALHNHYTQKSLSLSPGGGGGSGGGGSGGGGSGGGGSDIQMTQSPSSLSASVGDRVTITCRASQDIRSNLNWYQQKPGGAVKLLIYYTSRLHSGVPSRFSGSGSGTDYTLTISSLQPEDFATYFCQQSEKLPRTFGGGTKVEIRRTVAAPSVFIFPPSDEQLKSGTASVVCLLNNFYPREAKVQWKVDNALQSGNSQESVTEQDSKDSTYSLSSTLTLSKADYEKHKVYACEVTHQGLSSPVTKSFNRGEC
light: NIQMTQSPSSLSASVGDRVTITCKAGQNVNNYLAWYQQKPGKAPKVLIFNANSLQTGVPSRFSGSGSGTDFTLTISSLQPEDFATYYCQQYNSWPTFGGGTKVEIKRTVAAPSVFIFPPSDEQLKSGTASVVCLLNNFYPREAKVQWKVDNALQSGNSQESVTEQDSKDSTYSLSSTLTLSKADYEKHKVYACEVTHQGLSSPVTKSFNRGEC
chain: QVQLVQSGAEVKKPGASVKVSCKASGYTFAGFEMHWVRQAPGQGLEWMGAIDPKTGGTDYNQKFKDRVTMTRDTSISTAYMELSRLRSDDTAVYYCARDLGYFDVWGQGTLVTVSSASTKGPSVFPLAPSSKSTSGGTAALGCLVKDYFPEPVTVSWNSGALTSGVHTFPAVLQSSGLYSLSSVVTVPSSSLGTQTYICNVNHKPSNTKVDKKVEPKSCDK
notes: Three-chain format: Ly516 heavy chain fused to Ly1630 light chain; Ly516 light chain; Ly1630 VH-CH1
B2: Ly511 (bispecific antibody, human IgG2, kappa)
heavy: QVTLKESGPALVKPTQTLTLTCTFSGFSLSTSGTCVSWIRQPPGKALEWLATICWEDSKGYNPSLKSRLTISKDTSKNQAVLTMTNMDPVDTATYYCARREDSGYFWFPYWGQGTLVTVSSASTKGPSVFPLAPCSRSTSESTAALGCLVKDYFPEPVTVSWNSGALTSGVHTFPAVLQSSGLYSLSSVVTVPSSNFGTQTYTCNVDHKPSNTKVDKTVERKCCVECPPCPAPPVAPSVFLFPPKPKDTLMISRTPEVTCVVVDVSHEDPEVQFNWYVDGVEVHNAKTKPREEQFNSTFRVVSVLTVVHQDWLNGKEYKCKVSNKGLPAPIEKTISKTKGQPREPQVYTLPPSREEMTKNQVSLTCLVKGFYPSDIAVEWESNGQPENNYKTTPPMLDSDGSFFLYSKLTVDKSRWQQGNVFSCSVMHEALHNHYTQKSLSLSPGGGGGSGGGGSGGGGSGGGGSQVQLVQSGAEVKKPGASVKVSCKASGYTFAGFEMHWVRQAPGQGLEWMGAIDPKTGGTDYNQKFKDRVTMTRDTSISTAYMELSRLRSDDTAVYYCARDLGYFDVWGQGTLVTVSSGGGGSGGGGSGGGGSGGGGSDIQMTQSPSSLSASVGDRVTITCRASQDIRSNLNWYQQKPGGAVKLLIYYTSRLHSGVPSRFSGSGSGTDYTLTISSLQPEDFATYFCQQSEKLPRTFGGGTKVEIR
light: NIQMTQSPSSLSASVGDRVTITCKAGQNVNNYLAWYQQKPGKAPKVLIFNANSLQTGVPSRFSGSGSGTDFTLTISSLQPEDFATYYCQQYNSWPTFGGGTKVEIKRTVAAPSVFIFPPSDEQLKSGTASVVCLLNNFYPREAKVQWKVDNALQSGNSQESVTEQDSKDSTYSLSSTLTLSKADYEKHKVYACEVTHQGLSSPVTKSFNRGEC
notes: Anti-PD-1/CD137: Ly516 heavy chain fused to Ly1630 scFv (VH-VL); Ly516 light chain
B3: Ly457 (bispecific antibody, human IgG1, kappa)
heavy: QVTLKESGPALVKPTQTLTLTCTFSGFSLSTSGTCVSWIRQPPGKALEWLATICWEDSKGYNPSLKSRLTISKDTSKNQAVLTMTNMDPVDTATYYCARREDSGYFWFPYWGQGTLVTVSSASTKGPSVFPLAPSSKSTSGGTAALGCLVKDYFPEPVTVSWNSGALTSGVHTFPAVLQSSGLYSLSSVVTVPSSSLGTQTYICNVNHKPSNTKVDKKVEPKSCDKTHTCPPCPAPELLGPSVFLFPPKPKDTLMISRTPEVTCVVVDVSHEDPEVKFNWYVDGVEVHNAKTKPREEQYNSTYRVVSVLTVLHQDWLNGKEYKCKVSNKALPAPIEKTISKAKGQPREPQVYTLPPSREEMTKNQVSLTCLVKGFYPSDIAVEWESNGQPENNYKTTPPVLDSDGSFFLYSKLTVDKSRWQQGNVFSCSVMHEALHNHYTQKSLSLSPGGGGGSGGGGSGGGGSGGGGSQVQLVQSGAEVKKPGASVKVSCKASGYTFAGFEMHWVRQAPGQGLEWMGAIDPKTGGTDYNQKFKDRVTMTRDTSISTAYMELSRLRSDDTAVYYCARDLGYFDVWGQGTLVTVSSGGGGSGGGGSGGGGSGGGGSDIQMTQSPSSLSASVGDRVTITCRASQDIRSNLNWYQQKPGGAVKLLIYYTSRLHSGVPSRFSGSGSGTDYTLTISSLQPEDFATYFCQQSEKLPRTFGGGTKVEIR
light: NIQMTQSPSSLSASVGDRVTITCKAGQNVNNYLAWYQQKPGKAPKVLIFNANSLQTGVPSRFSGSGSGTDFTLTISSLQPEDFATYYCQQYNSWPTFGGGTKVEIKRTVAAPSVFIFPPSDEQLKSGTASVVCLLNNFYPREAKVQWKVDNALQSGNSQESVTEQDSKDSTYSLSSTLTLSKADYEKHKVYACEVTHQGLSSPVTKSFNRGEC
notes: as for B2
B4: Ly513 (bispecific antibody, human IgG2, kappa)
heavy: QVTLKESGPALVKPTQTLTLTCTFSGFSLSTSGTCVSWIRQPPGKALEWLATICWEDSKGYNPSLKSRLTISKDTSKNQAVLTMTNMDPVDTATYYCARREDSGYFWFPYWGQGTLVTVSSASTKGPSVFPLAPCSRSTSESTAALGCLVKDYFPEPVTVSWNSGALTSGVHTFPAVLQSSGLYSLSSVVTVPSSNFGTQTYTCNVDHKPSNTKVDKTVERKCCVECPPCPAPPVAPSVFLFPPKPKDTLMISRTPEVTCVVVDVSHEDPEVQFNWYVDGVEVHNAKTKPREEQFNSTFRVVSVLTVVHQDWLNGKEYKCKVSNKGLPAPIEKTISKTKGQPREPQVYTLPPSREEMTKNQVSLTCLVKGFYPSDIAVEWESNGQPENNYKTTPPMLDSDGSFFLYSKLTVDKSRWQQGNVFSCSVMHEALHNHYTQKSLSLSPGK
light: NIQMTQSPSSLSASVGDRVTITCKAGQNVNNYLAWYQQKPGKAPKVLIFNANSLQTGVPSRFSGSGSGTDFTLTISSLQPEDFATYYCQQYNSWPTFGGGTKVEIKRTVAAPSVFIFPPSDEQLKSGTASVVCLLNNFYPREAKVQWKVDNALQSGNSQESVTEQDSKDSTYSLSSTLTLSKADYEKHKVYACEVTHQGLSSPVTKSFNRGECGGGGSGGGGSGGGGSGGGGSQVQLVQSGAEVKKPGASVKVSCKASGYTFAGFEMHWVRQAPGQGLEWMGAIDPKTGGTDYNQKFKDRVTMTRDTSISTAYMELSRLRSDDTAVYYCARDLGYFDVWGQGTLVTVSSGGGGSGGGGSGGGGSGGGGSDIQMTQSPSSLSASVGDRVTITCRASQDIRSNLNWYQQKPGGAVKLLIYYTSRLHSGVPSRFSGSGSGTDYTLTISSLQPEDFATYFCQQSEKLPRTFGGGTKVEIR
notes: Anti-PD-1/CD137: Ly516 heavy chain; Ly516 light chain fused to Ly1630 scFv (VH-VL)

What was measured:
[1] = biological target: T1, human PD-1 expressed on cells (human, UniProt Q15116 25-288); assay: flow cytometry (FACS), MFI, CHO cells expressing human PD-1
T1 construct: whole, on cells; also called human PD-1 over-expressed on the CHO cells; Jurkat/NFkB-Luci/PD-1 cells
Protocol: (§1) Exemplary anti-PD-1/CD137 bi-specific antibodies were analyzed by FACS for their binding properties to human PD-1 and/or human CD137 expressed on CHO cells. Briefly, cultured cells were harvested, counted and cell viability was evaluated using the Trypan Blue exclusion method. Viable cells were then adjusted to 2×10⁶ cells per mL in PBS containing 2% BSA. 100 μL of this cell suspension were further aliquoted per well into a V-bottom 96-well plate. […] After incubation for 2 hours at 4° C., cells were centrifuged (3 min, 1000× g), washed with 250 μL/well BSA-containing FACS Stain Buffer, resuspended and incubated for an additional 1 hour at 4° C. with 100 μL/well fluorochrome-conjugated anti-IgG antibody for detection of the bisepecific antibody. Cells were then washed with 250 μL/well BSA-containing FACS Stain Buffer, resuspended in 100 μL/well FACS Stain Buffer, acquired and analyzed using a FACS machine. Binding of the bispecific antibodies to human PD-1 or human CD137 expressing CHO cells were evaluated and the mean fluorescence intensity is plotted in histograms or dot plots.

[2] = biological target: T2, human CD137 ECD protein (His tag) (human, UniProt Q07011 24-186); assay: bridging ELISA: human CD137 ECD (His tag) coated, antibody titrated, then human PD-1 ECD (mouse IgG2a Fc tag), HRP anti-mouse IgG2a Fc; A450-A620
T2 construct: extracellular domain; also called recombinant human CD137; not shown: His tag
Protocol: Exemplary anti-PD-1/CD137 bi-specific antibodies were analyzed by ELISA for their simultaneous binding to recombinant human PD-1 and human CD137. Briefly, human CD137 ECD protein (His tag) was diluted and coated onto an ELISA plate with a volume of 100 μL/well by incubation at 4° C. overnight. The next day, the plate was blocked with PBST-BSA buffer, then serially diluted samples of anti-PD-1/CD137 bi-specific antibodies were pipetted into appropriate wells at 50 μL/well, and the plate was incubated for 1 hour followed by washing. The extracellular domain (ECD) of human PD-1 protein (mouse IgG2a Fc tag) was added into the plate at 50 μL/well. After 1-hour incubation at room temperature, HRP-conjugated anti-Mouse IgG, Fc G2a specific antibody was added into the plate at 100 μL/well. The plate was incubated for 1 hour at room temperature followed by washing. TMB substrate solution was added at 100 μL/well and the color development was stopped by adding 100 uL/well Stop Solution (2N H₂SO₄). Absorbance at 450 nm and 620 nm was read by Tecan F200 Pro plate reader. GraphPad 7.0, “[Agonist] vs. response—Variable slope (four parameters)” was used to plot the binding data and calculate binding EC50 values.

[3] = biological target: T3, human CD137 expressed on cells (human, UniProt Q07011 24-255); assay: flow cytometry (FACS), MFI, CHO cells expressing human CD137
T3 construct: whole, on cells; also called 4-1BB; TNFRSF9
Protocol: as §1

T3 sequence (Q07011 24-255): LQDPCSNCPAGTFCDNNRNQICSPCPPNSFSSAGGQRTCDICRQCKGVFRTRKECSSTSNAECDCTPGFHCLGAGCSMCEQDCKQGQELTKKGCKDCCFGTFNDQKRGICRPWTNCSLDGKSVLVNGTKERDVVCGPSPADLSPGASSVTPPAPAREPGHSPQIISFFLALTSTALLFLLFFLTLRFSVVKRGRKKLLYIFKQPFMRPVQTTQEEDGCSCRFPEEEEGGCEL
T1 sequence (Q15116 25-288): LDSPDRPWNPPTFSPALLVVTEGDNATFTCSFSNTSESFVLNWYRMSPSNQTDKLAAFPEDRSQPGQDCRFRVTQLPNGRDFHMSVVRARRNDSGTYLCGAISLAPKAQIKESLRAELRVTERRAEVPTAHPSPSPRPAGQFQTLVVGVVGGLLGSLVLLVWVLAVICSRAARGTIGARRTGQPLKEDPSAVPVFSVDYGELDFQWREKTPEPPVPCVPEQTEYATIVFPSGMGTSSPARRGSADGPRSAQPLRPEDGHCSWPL

| Binder | EC50 (read off the curve) [1] | binding result [2] | binding result [3] | EC50 (read off the curve) [2] | EC50 (read off the curve) [3] |
| --- | --- | --- | --- | --- | --- |
| B1 | ~0.2 µg/mL | binds | binds |  |  |
| B2 | ~0.2 µg/mL |  |  | ~0.02 µg/mL | ~0.2 µg/mL |
| B3 | ~0.2 µg/mL |  |  | ~0.02 µg/mL | ~0.2 µg/mL |
| B4 | ~0.1 µg/mL |  |  | ~0.03 µg/mL | ~0.2 µg/mL |
